Our source for the Km, kcat and kcat/Km values is article PMC4857615.

The subject of this data set is Nc1ncnc2c1ncn2[C@@H]1O[C@H](COP(=O)(O)OP(=O)(O)OP(=O)(O)O)[C@@H](O)[C@H]1O. Put plainly: purified protein. The conditions noted are these: co-substrate acetate, MgCl2 6.6 mM, HEPES 84 mM, 40 °C.

For “EutP (Salmonella enterica subsp. enterica serovar Typhimurium str. LT2)”, the Michaelis-Menten constant (Km) was determined as 500 ± 200 µM, the kcat stood at 657 s⁻¹ and the kcat/Km came to 1.31e+06 ± 377000 M⁻¹ s⁻¹.
Turning to “EutQ (Salmonella enterica subsp. enterica serovar Typhimurium str. LT2)”, the Km amounted to 500 ± 100 µM, the kcat came out at 434 s⁻¹ and the kcat/Km was 868000 ± 145000 M⁻¹ s⁻¹.
